Reference: patent publication US20200024330A1 (published 2020)

Tests used:
[1] = biological target: HIV-1 93UG077 envelope protein (Env) on pseudovirus (HIV-1 isolate 93UG077); test: cell-based or functional assay
[2] = biological target: HIV-1 APV-13 envelope protein (Env) on pseudovirus (HIV-1 isolate APV-13); test: cell-based or functional assay
[3] = biological target: HIV-1 IAVI-C18 envelope protein (Env) on pseudovirus (HIV-1 isolate IAVI-C18); test: cell-based or functional assay
[4] = biological target: HIV-1 IAVI-C3 envelope protein (Env) on pseudovirus (HIV-1 isolate IAVI-C3); test: cell-based or functional assay
[5] = biological target: HIV-1 APV-17 envelope protein (Env) on pseudovirus (HIV-1 isolate APV-17); test: cell-based or functional assay
[6] = biological target: HIV-1 92UG005 envelope protein (Env) on pseudovirus (HIV-1 isolate 92UG005); test: cell-based or functional assay
[7] = biological target: HIV-1 92BR020 envelope protein (Env) on pseudovirus (HIV-1 isolate 92BR020); test: cell-based or functional assay
[8] = biological target: HIV-1 92RW020 envelope protein (Env) on pseudovirus (HIV-1 isolate 92RW020); test: cell-based or functional assay
[9] = biological target: aMLV envelope protein on pseudovirus (negative control) (aMLV); test: cell-based or functional assay
[10] = biological target: HIV-1 94UG103 envelope protein (Env) on pseudovirus (HIV-1 isolate 94UG103); test: cell-based or functional assay
[11] = biological target: HIV-1 APV-6 envelope protein (Env) on pseudovirus (HIV-1 isolate APV-6); test: cell-based or functional assay
[12] = biological target: HIV-1 CMU02 envelope protein (Env) on pseudovirus (HIV-1 isolate CMU02); test: cell-based or functional assay
[13] = biological target: HIV-1 92UG024 envelope protein (Env) on pseudovirus (HIV-1 isolate 92UG024); test: cell-based or functional assay
[14] = biological target: HIV-1 92TH021 envelope protein (Env) on pseudovirus (HIV-1 isolate 92TH021); test: cell-based or functional assay
[15] = biological target: HIV-1 93IN905 envelope protein (Env) on pseudovirus (HIV-1 isolate 93IN905); test: cell-based or functional assay
[16] = biological target: HIV-1 IAVI-C22 envelope protein (Env) on pseudovirus (HIV-1 isolate IAVI-C22); test: cell-based or functional assay
[17] = biological target: T1, recombinant monomeric gp120 of HIV-1 isolate JR-CSF (HIV-1 isolate JR-CSF, UniProt P20871 32-503); test: anti-gp120 ELISA, B cell culture supernatant on captured gp120
T1 construct: domain: gp120

[18] = biological target: aMLV envelope protein on pseudotyped virus (negative control) (aMLV); test: cell-based or functional assay

B1: 1496_C09 (PG9) (TCN-109) (antibody, V domains shown)
VH: QRLVESGGGVVQPGSSLRLSCAASGFDFSRQGMHWVRQAPGQGLEWVAFIKYDGSEKYHADSVWGRLSISRDNSKDTLYLQMNSLRVEDTATYFCVREAGGPDYRNGYNYYDFYDGYYNYHYMDVWGKGTTVTVSS
VL: QSALTQPASVSGSPGQSITISCNGTSNDVGGYESVSWYQQHPGKAPKVVIYDVSKRPSGVSNRFSGSKSGNTASLTISGLQAEDEGDYYCKSLTSTRRRVFGTGTKLTVLG
IC50 (µg/mL), pseudovirus neutralization [1]: > 50 µg/mL
IC50 (µg/mL), pseudovirus neutralization [2]: > 50 µg/mL
IC50 (µg/mL), pseudovirus neutralization [3]: 0.05 µg/mL
IC50 (µg/mL), pseudovirus neutralization [4]: 12.9 µg/mL
IC50 (µg/mL), pseudovirus neutralization [5]: 26.4 µg/mL
IC50 (µg/mL), pseudovirus neutralization [6]: > 50 µg/mL
IC50 (µg/mL), pseudovirus neutralization [7]: > 50 µg/mL
IC50 (µg/mL), pseudovirus neutralization [8]: 0.06 µg/mL
IC50 (µg/mL), pseudovirus neutralization [9]: > 50 µg/mL
IC50 (µg/mL), pseudovirus neutralization [10]: 0.17 µg/mL
IC50 (µg/mL), pseudovirus neutralization [11]: 0.09 µg/mL
IC50 (µg/mL), pseudovirus neutralization [12]: > 50 µg/mL

B2: 1456_P20 (PG20) (antibody, human IgG1, kappa, V domains shown)
VH: QVRLVQSGPEVKKPGSSVTVSCQASGGTFSSYAFTWVRQAPGQGLEWLGMVTPIFGEAKYSQRFEGRVTITADESTSTTSIELRGLTSEDTAIYYCARDRRAVPIATDNWLDPWGQGTLVTVSS
VL: DIQLTQSPSSLSASVGDRVSITCRASQTINNYLNWYQQTPGKAPKLLIYGASNLQNGVPSRFSGSGSGTDFTLTISSLQPEDFATYYCQQSFSTPRTFGQGTRLDIKR
IC50 (µg/mL), pseudovirus neutralization [13]: > 50 µg/mL
IC50 (µg/mL), pseudovirus neutralization [14]: > 50 µg/mL
IC50 (µg/mL), pseudovirus neutralization [1]: > 50 µg/mL
IC50 (µg/mL), pseudovirus neutralization [2]: > 50 µg/mL
IC50 (µg/mL), pseudovirus neutralization [3]: > 50 µg/mL
IC50 (µg/mL), pseudovirus neutralization [4]: > 50 µg/mL
IC50 (µg/mL), pseudovirus neutralization [5]: > 50 µg/mL
IC50 (µg/mL), pseudovirus neutralization [6]: > 50 µg/mL
IC50 (µg/mL), pseudovirus neutralization [7]: > 50 µg/mL
IC50 (µg/mL), pseudovirus neutralization [15]: > 50 µg/mL
IC50 (µg/mL), pseudovirus neutralization [8]: 50 µg/mL
IC50 (µg/mL), pseudovirus neutralization [9]: > 50 µg/mL
IC50 (µg/mL), pseudovirus neutralization [10]: > 50 µg/mL
IC50 (µg/mL), pseudovirus neutralization [11]: 25.8 µg/mL
IC50 (µg/mL), pseudovirus neutralization [16]: > 50 µg/mL
IC50 (µg/mL), pseudovirus neutralization [12]: > 50 µg/mL

B3: 1456_P20 (PG20) (antibody, V domains shown)
VH: QVRLVQSGPEVKKPGSSVTVSCQASGGTFSSYAFTWVRQAPGQGLEWLGMVTPIFGEAKYSQRFEGRVTITADESTSTTSIELRGLTSEDTAIYYCARDRRAVPIATDNWLDPWGQGTLVTVSS
VL: DIQLTQSPSSLSASVGDRVSITCRASQTINNYLNWYQQTPGKAPKLLIYGASNLQNGVPSRFSGSGSGTDFTLTISSLQPEDFATYYCQQSFSTPRTFGQGTRLDIK
notes: also called B cell culture plate 1456 well P20
ELISA OD [17]: 3.78 OD

B4: 1460_G14 (PGG14) (antibody, V domains shown)
VH: QVLLVQSGTEVKKPGSSVKVSCQASGGAFSSYAFSWVRQAPGQGLEWMGMITPVFGETKYAPRFQGRLTLTAEESLSTTYMELRSLTSDDTAFYYCTRDRRVVPMATDNWLDPWGQGTLVTVSS
VL: DIQLTQSPSSLSASVGDRVTVTCRASQTIHTYLNWYQQIPGKAPKLLIYGASTLQSGVPSRFSGSGSGTDFTLTINSLQPEDFATYYCQQSYSTPRTFGQGTRLDIKR
IC50, pseudovirus neutralization, 1 hour Virus/Ab Incubation [18]: > 50 µg/mL
IC50, pseudovirus neutralization, 18 hour Virus/Ab Incubation [18]: > 50 µg/mL

B5: 1460_G14 (PGG14) (antibody, human IgG1, kappa, V domains shown)
VH: QVLLVQSGTEVKKPGSSVKVSCQASGGAFSSYAFSWVRQAPGQGLEWMGMITPVFGETKYAPRFQGRLTLTAEESLSTTYMELRSLTSDDTAFYYCTRDRRVVPMATDNWLDPWGQGTLVTVSS
VL: DIQLTQSPSSLSASVGDRVTVTCRASQTIHTYLNWYQQIPGKAPKLLIYGASTLQSGVPSRFSGSGSGTDFTLTINSLQPEDFATYYCQQSYSTPRTFGQGTRLDIKR
IC50 (µg/mL), pseudovirus neutralization [13]: > 50 µg/mL
IC50 (µg/mL), pseudovirus neutralization [14]: > 50 µg/mL
IC50 (µg/mL), pseudovirus neutralization [1]: > 50 µg/mL
IC50 (µg/mL), pseudovirus neutralization [2]: > 50 µg/mL
IC50 (µg/mL), pseudovirus neutralization [3]: > 50 µg/mL
IC50 (µg/mL), pseudovirus neutralization [4]: > 50 µg/mL
IC50 (µg/mL), pseudovirus neutralization [5]: > 50 µg/mL
IC50 (µg/mL), pseudovirus neutralization [6]: > 50 µg/mL
IC50 (µg/mL), pseudovirus neutralization [7]: > 50 µg/mL
IC50 (µg/mL), pseudovirus neutralization [15]: > 50 µg/mL
IC50 (µg/mL), pseudovirus neutralization [8]: > 50 µg/mL
IC50 (µg/mL), pseudovirus neutralization [9]: > 50 µg/mL
IC50 (µg/mL), pseudovirus neutralization [10]: > 50 µg/mL
IC50 (µg/mL), pseudovirus neutralization [11]: > 50 µg/mL
IC50 (µg/mL), pseudovirus neutralization [16]: > 50 µg/mL
IC50 (µg/mL), pseudovirus neutralization [12]: > 50 µg/mL

B6: 1443_C16 (PG16) (TCN-116) (antibody, V domains shown)
VH: QEQLVESGGGVVQPGGSLRLSCLASGFTFHKYGMHWVRQAPGKGLEWVALISDDGMRKYHSDSMWGRVTISRDNSKNTLYLQFSSLKVEDTAMFFCAREAGGPIWHDDVKYYDFNDGYYNYHYMDVWGKGTTVTVSS
VL: QSALTQPASVSGSPGQTITISCNGTSSDVGGFDSVSWYQQSPGKAPKVMVFDVSHRPSGISNRFSGSKSGNTASLTISGLHIEDEGDYFCSSLTDRSHRIFGGGTKVTVLG
IC50 (µg/mL), pseudovirus neutralization [13]: > 50 µg/mL
IC50 (µg/mL), pseudovirus neutralization [14]: 0.13 µg/mL
IC50 (µg/mL), pseudovirus neutralization [1]: > 50 µg/mL
IC50 (µg/mL), pseudovirus neutralization [2]: > 50 µg/mL
IC50 (µg/mL), pseudovirus neutralization [3]: 0.007 µg/mL
IC50 (µg/mL), pseudovirus neutralization [4]: 14.8 µg/mL
IC50 (µg/mL), pseudovirus neutralization [5]: > 50 µg/mL
IC50 (µg/mL), pseudovirus neutralization [6]: > 50 µg/mL
IC50 (µg/mL), pseudovirus neutralization [7]: > 50 µg/mL
IC50 (µg/mL), pseudovirus neutralization [15]: 0.1 µg/mL
IC50 (µg/mL), pseudovirus neutralization [8]: 0.004 µg/mL
IC50 (µg/mL), pseudovirus neutralization [9]: > 50 µg/mL
IC50 (µg/mL), pseudovirus neutralization [10]: 0.008 µg/mL
IC50 (µg/mL), pseudovirus neutralization [11]: 0.08 µg/mL
IC50 (µg/mL), pseudovirus neutralization [16]: 0.069 µg/mL
IC50 (µg/mL), pseudovirus neutralization [12]: > 50 µg/mL

B7: 1460_G14 (PGG14) (antibody, V domains shown)
VH: QVLLVQSGTEVKKPGSSVKVSCQASGGAFSSYAFSWVRQAPGQGLEWMGMITPVFGETKYAPRFQGRLTLTAEESLSTTYMELRSLTSDDTAFYYCTRDRRVVPMATDNWLDPWGQGTLVTVSS
VL: DIQLTQSPSSLSASVGDRVTVTCRASQTIHTYLNWYQQIPGKAPKLLIYGASTLQSGVPSRFSGSGSGTDFTLTINSLQPEDFATYYCQQSYSTPRTFGQGTRLDIK
notes: also called B cell culture plate 1460 well G14
ELISA OD [17]: 3.49 OD

B8: 1495_C14 (PGC14) (antibody, human IgG1, lambda, V domains shown)
VH: DGHLVQSGVEVKKTGATVKISCKVSGYSFIDYYLHWVQRAPGKGLEWVGLIDPENGEARYAEKFQGRVTIIADTSIDTGYMEMRSLKSEDTAVYFCAAGAVGADSGSWFDPWGQGTLVTVSS
VL: SYELTQPPSVSVSPGQTASITCSGSKLGDKYVSWYQLRPGQSPILVMYENDRRPSGIPERFSGSNSGDTATLTISGTQALDEADFYCQAWETTTTTFVFFGGGTQLTVLG
IC50 (µg/mL), pseudovirus neutralization [13]: > 50 µg/mL
IC50 (µg/mL), pseudovirus neutralization [14]: > 50 µg/mL
IC50 (µg/mL), pseudovirus neutralization [1]: > 50 µg/mL
IC50 (µg/mL), pseudovirus neutralization [2]: > 50 µg/mL
IC50 (µg/mL), pseudovirus neutralization [3]: > 50 µg/mL
IC50 (µg/mL), pseudovirus neutralization [4]: 9.5 µg/mL
IC50 (µg/mL), pseudovirus neutralization [5]: > 50 µg/mL
IC50 (µg/mL), pseudovirus neutralization [6]: > 50 µg/mL
IC50 (µg/mL), pseudovirus neutralization [7]: 0.64 µg/mL
IC50 (µg/mL), pseudovirus neutralization [15]: > 50 µg/mL
IC50 (µg/mL), pseudovirus neutralization [8]: 28.6 µg/mL
IC50 (µg/mL), pseudovirus neutralization [9]: > 50 µg/mL
IC50 (µg/mL), pseudovirus neutralization [10]: > 50 µg/mL
IC50 (µg/mL), pseudovirus neutralization [11]: 7.41 µg/mL
IC50 (µg/mL), pseudovirus neutralization [16]: > 50 µg/mL
IC50 (µg/mL), pseudovirus neutralization [12]: > 50 µg/mL

B9: 1495_C14 (PGC14) (antibody, V domains shown)
VH: DGHLVQSGVEVKKTGATVKISCKVSGYSFIDYYLHWVQRAPGKGLEWVGLIDPENGEARYAEKFQGRVTIIADTSIDTGYMEMRSLKSEDTAVYFCAAGAVGADSGSWFDPWGQGTLVTVSS
VL: SYELTQPPSVSVSPGQTASITCSGSKLGDKYVSWYQLRPGQSPILVMYENDRRPSGIPERFSGSNSGDTATLTISGTQALDEADFYCQAWETTTTTFVFFGGGTQLTVL
notes: also called B cell culture plate 1495 well C14
ELISA OD [17]: 3.76 OD
